The values below come from the RNAGym collection of RNA variant scans (doi:10.7554/elife.80360).

B1: Hammerhead Ribozyme (parent)
chain: ACCGGAUGUGCUUUCCGGUCUGAUGAGUCCGUGAGGACGAAACAG

The variants in the data set derive from B1. The data set can be described thus: self-cleavage, relative activity (ratio to wild type); higher = more cleavage; co-transcriptional.
For ACCGGAUGUGCUUUCCGGUCUGAUGUGUCCGUGAGGACGUAACAG, the self-cleavage came to 0.341.
Consider ACCGGAUGUGCUUUCCGGUCUGAUGUGUCCGUGAGGACGGAACAG, for which the self-cleavage was determined as 0.344.
For ACCGGAUGUGCUUUCCGGUCUGAUGUGUCCGUGAGGACGCAACAG the value was 0.331; for ACCGGAUGUGCUUUCCGGUCUGAUGAAUCCGUGAGGACGAAACAG, 0.897; for ACCGGAUGUGCUUUCCGGUCUGAUGUGUCCUUGAGGACGAAACAG, 0.748.
Take ACCGGAUGUGCUUUCCGGUCUGAUGUGUCCAUGAGGACGAAACAG: the self-cleavage came to 0.738.
For ACCGGAUGUGCUUUCCGGUCUGAUGUGUCCCUGAGGACGAAACAG the value was 0.633.
For ACCGGAUGUGCUUUCCGGUCUGAUGUGUCCGUGAGGACGAGACAG the value was 0.434.
As for ACCGGAUGUGCUUUCCGGUCUGAUGUGUCCGUGAGGACGACACAG, the self-cleavage amounted to 0.295.
For ACCGGAUGUGCUUUCCGGUCUGAUGUGUCCGUGAGGACGAUACAG the value was 0.29.
Consider ACCGGAUGUGCUUUCCGGUCUGAUGUGUCCGUGAGCACGAAACAG, for which the self-cleavage is 0.265.
For the variant ACCGGAUGUGCUUUCCGGUCUGAUGUGUCCGUGAGAACGAAACAG, the self-cleavage was 0.458.
As to ACCGGAUGUGCUUUCCGGUCUGAUGUGUCCGUGAGUACGAAACAG, the self-cleavage amounted to 0.446.
For ACCGGAUGUGCUUUCCGGUCUGAUGUGUCCGUUAGGACGAAACAG the value was 0.659; for ACCGGAUGUGCUUUCCGGUCUGAUGUGUCCGUAAGGACGAAACAG, 0.961.
For ACCGGAUGUGCUUUCCGGUCUGAUGUGUCCGUCAGGACGAAACAG the value was 0.546; for ACCGGAUGUGCUUUCCGGUCUGAUGUGUCAGUGAGGACGAAACAG, 0.507; for ACCGGAUGUGCUUUCCGGUCUGAUGUGUCGGUGAGGACGAAACAG, 0.423.
For the variant ACCGGAUGUGCUUUCCGGUCUGAUGUGUCUGUGAGGACGAAACAG, the self-cleavage was found to be 0.703.
Take ACCGGAUGUGCUUUCCGGUCUGAUGUGUCCGUGAGGACGAAACAC: the self-cleavage worked out at 0.362.
For ACCGGAUGUGCUUUCCGGUCUGAUGUGUCCGUGAGGACGAAACAA the value was 0.359; for ACCGGAUGUGCUUUCCGGUCUGAUGUGUCCGUGAGGACGAAACAU, 0.476.
For ACCGGAUGUGCUUUCCGGUCUGAUGUGUCCGUGAGGACGAAAUAG the value was 0.382; for ACCGGAUGUGCUUUCCGGUCUGAUGUGUCCGUGAGGACGAAAGAG, 0.415.
As to ACCGGAUGUGCUUUCCGGUCUGAUGUGUCCGUGAGGACGAAAAAG, the self-cleavage is 0.33.
For ACCGGAUGUGCUUUCCGGUCUGAUGAAUCCGUGUGGACGAAACAG the value was 0.574; for ACCGGAUGUGCUUUCCGGUCUGAUGAAUCCGUGGGGACGAAACAG, 0.513; for ACCGGAUGUGCUUUCCGGUCUGAUGAAUCCGUGCGGACGAAACAG, 0.431.
For ACCGGAUGUGCUUUCCGGUCUGAUGUGUCCGUGAGGACGAAUCAG the value was 0.261; for ACCGGAUGUGCUUUCCGGUCUGAUGUGUCCGUGAGGACGAAGCAG, 0.303.
With ACCGGAUGUGCUUUCCGGUCUGAUGUGUCCGUGAGGACGAACCAG, the self-cleavage is 0.293.
As to ACCGGAUGUGCUUUCCGGUCUGAUGUGCCCGUGAGGACGAAACAG, the self-cleavage worked out at 0.646.
Regarding ACCGGAUGUGCUUUCCGGUCUGAUGUGACCGUGAGGACGAAACAG, the self-cleavage worked out at 0.464.
As for ACCGGAUGUGCUUUCCGGUCUGAUGUGGCCGUGAGGACGAAACAG, the self-cleavage came out at 0.437.
For ACCGGAUGUGCUUUCCGGUCUGAUGUGUUCGUGAGGACGAAACAG, the self-cleavage was 0.598.
ACCGGAUGUGCUUUCCGGUCUGAUGUGUGCGUGAGGACGAAACAG: the self-cleavage came out at 0.475.
Turning to ACCGGAUGUGCUUUCCGGUCUGAUGUGUACGUGAGGACGAAACAG, the self-cleavage was found to be 0.311.
Turning to ACCGGAUGUGCUUUCCGGUCUGAUGUGUCCGUGAGGACGAAACUG, the self-cleavage turned out to be 0.443.
In the case of ACCGGAUGUGCUUUCCGGUCUGAUGUGUCCGUGAGGACGAAACCG, the self-cleavage turned out to be 0.477.
For ACCGGAUGUGCUUUCCGGUCUGAUGUGUCCGUGAGGACGAAACGG the value was 1.04; for ACCGGAUGUGCUUUCCGGUCUGAUGUGUCCGGGAGGACGAAACAG, 0.466; for ACCGGAUGUGCUUUCCGGUCUGAUGUGUCCGAGAGGACGAAACAG, 0.846.
For ACCGGAUGUGCUUUCCGGUCUGAUGUGUCCGCGAGGACGAAACAG the value was 0.819; for ACCGGAUGUGCUUUCCGGUCUGAUGUGUCCGUGAGGAAGAAACAG, 0.6; for ACCGGAUGUGCUUUCCGGUCUGAUGUGUCCGUGAGGAGGAAACAG, 0.318.
In the case of ACCGGAUGUGCUUUCCGGUCUGAUGUGUCCGUGAGGAUGAAACAG, the self-cleavage was 0.783.
As for ACCGGAUGUGCUUUCCGGUCUGAUGUGUCCGUGACGACGAAACAG, the self-cleavage worked out at 0.377.
Take ACCGGAUGUGCUUUCCGGUCUGAUGUGUCCGUGAAGACGAAACAG: the self-cleavage worked out at 0.52.
For ACCGGAUGUGCUUUCCGGUCUGAUGUGUCCGUGAUGACGAAACAG the value was 0.491; for ACCGGAUGUGCUUUCCGGUCUGAUGUAUCCGUGAGGACGAAACAG, 0.518; for ACCGGAUGUGCUUUCCGGUCUGAUGUCUCCGUGAGGACGAAACAG, 0.317.
For ACCGGAUGUGCUUUCCGGUCUGAUGUUUCCGUGAGGACGAAACAG the value was 0.315; for ACCGGAUGUGCUUUCCGGUCUGAUGUGUCCGUGAGGACAAAACAG, 0.366.
For ACCGGAUGUGCUUUCCGGUCUGAUGUGUCCGUGAGGACCAAACAG, the self-cleavage is 0.378.
For ACCGGAUGUGCUUUCCGGUCUGAUGUGUCCGUGAGGACUAAACAG the value was 0.296.
For ACCGGAUGUGCUUUCCGGUCUGAUGUGUCCGUGAGGUCGAAACAG the value was 0.545; for ACCGGAUGUGCUUUCCGGUCUGAUGUGUCCGUGAGGGCGAAACAG, 0.736.
